Source: article doi:10.1101/2020.08.06.226779 (bioRxiv, 2020)

Target: the molecule itself
Experiment: SEC-MALS

B1: recombinant BCAS0292 (natural protein)
chain: MSGVRCDGLAIVDAVTLLSAYPDASRDADAPTVIDGRHIYVLRPGDAGQVGHNDNRLFAGLSPGDQLHLRETALALRAEVTVLFIRFALKDAGIVAPIEAEIRDAATPVPDGDDLLHPSCRPMKDHFWRSEVLAPGITTCTADFAVLDRDGAVSGYFRWETAIEIAGSRPDTKQPGVEP
**Q.** Which “stoichiometry N” value does the source give for B1 here?
**A.** 2
